According to patent US20170296524A1:

Target: T1, MCT1 (monocarboxylate transporter 1), endogenous (human), P53985
T1 chain: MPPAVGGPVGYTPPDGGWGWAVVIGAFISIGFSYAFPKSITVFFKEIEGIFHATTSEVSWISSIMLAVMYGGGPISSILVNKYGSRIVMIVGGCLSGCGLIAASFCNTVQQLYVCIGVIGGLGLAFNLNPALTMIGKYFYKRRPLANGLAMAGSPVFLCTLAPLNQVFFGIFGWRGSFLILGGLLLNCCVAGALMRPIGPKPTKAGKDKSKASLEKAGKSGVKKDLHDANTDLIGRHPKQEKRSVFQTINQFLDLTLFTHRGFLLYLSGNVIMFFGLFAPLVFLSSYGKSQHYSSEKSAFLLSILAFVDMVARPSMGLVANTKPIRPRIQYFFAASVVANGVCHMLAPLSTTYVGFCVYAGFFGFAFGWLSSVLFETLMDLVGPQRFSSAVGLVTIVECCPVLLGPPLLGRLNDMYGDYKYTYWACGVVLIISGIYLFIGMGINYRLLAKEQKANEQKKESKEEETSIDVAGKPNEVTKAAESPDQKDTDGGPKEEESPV
Assay: tandem affinity purification of CRBN-SF, mass spectrometry
Conditions: remark: other sources report otherwise

B1: Strep-Flag tagged CRBN (CRBN-SF), Q96SW2 1-442 (protein, human, UniProt Q96SW2 1-442, looked up, not shown: small tags and cut ends)
chain: MAGEGDQQDAAHNMGNHLPLLPAESEEEDEMEVEDQDSKEAKKPNIINFDTSLPTSHTYLGADMEEFHGRTLHDDDSCQVIPVLPQVMMILIPGQTLPLQLFHPQEVSMVRNLIQKDRTFAVLAYSNVQEREAQFGTTAEIYAYREEQDFGIEIVKVKAIGRQRFKVLELRTQSDGIQQAKVQILPECVLPSTMSAVQLESLNKCQIFPSKPVSREDQCSYKWWQKYQKRKFHCANLTSWPRWLYSLYDAETLMDRIKKQLREWDENLKDDSLPSNPIDFSYRVAACLPIDDVLRIQLLKIGSAIQRLRCELDIMNKCTSLCCKQCQETEITTKNEIFSLSLCGPMAAYVNPHGYVHETLTVYKACNLNLIGRPSTEHSWFPGYAWTVAQCKICASHIGWKFTATKKDMSPQKFWGLTRSALLPTIPDTEDEISPDKVILCL
unique peptides identified in the screen (unique peptides): 6
